Data on five molecules can be found in patent publication US20210179728A1 (OSE IMMUNOTHERAPEUTICS, published 2021).

Test [1] addresses T1, recombinant hSIRPa (Sino Biologicals, reference 11612-H08H) (human, UniProt P78324 31-370).
T1 construct: also called SIRPa-His; human SIRPa-His; not shown: His tag (histidine tail)
The experiment in a line: BLI (Blitz); SIRPa-His on Ni-NTA biosensor pre-incubated with SP-D at 100 ug/ml, then antibody at 20 ug/ml [B, table A]. How it is done: FIG. 6. […] SIRPa-His recombinant protein was immobilized onto a NINTA biosensor at 10 μg/ml and the anti-SIRPa antibody was added at 20 μg/ml (saturating concentration).
In a first step, Sirp-a (His) recombinant protein (Sino Biologicals, Beijing, China; reference 11612-H08H) was immobilized at 10 μg/ml by histidine tail into a Ni-NTA biosensor (Forte Bio; USA; reference 18-0029) for 30 seconds. […] Then, anti-SIRPa antibodies were associated at 20 μg/mL (saturating concentration) for 120 seconds. The dissociation of anti-SIRPa antibody was made in kinetics buffer for 120 seconds. Analysis data was made with the Blitz pro 1.2 software, which calculated association constant (ka) and dissociation constant (kd) and determined the affinity constant KD […].

The target in test [2] is T1, recombinant hSIRPa (Sino Biologicals, …). The experiment in a line: SPR (Biacore); SIRPa-His immobilized on CM5 chip, antibody injected. How it is done:
FIG. 2. Affinity analysis by Biacore of anti-SIRP antibodies on human SIRPa recombinant protein. SIRPa-His recombinant protein was immobilized onto a CM5 chip at 5 μg/ml (500 RU) and the indicated antibodies were added at different concentration.
Method: Recombinant hSIRPa (Sino Biologicals, Beijing, China; reference 11612-H08H) was immobilized into a CM5 sensor chip (GeHealthcare; France) at 5 μg/ml (500 RU) and antibodies were applied at different concentrations with a flow rate of 40 μl/min. Analysis was performed with a BIAcore 3000 (Biacore, GeHealthcare).

The target is the same in test [3]. In words: BLI (Blitz); SIRPa-His on Ni-NTA biosensor, antibody at 20 ug/ml, no SP-D [B, table A].
Test [4] shares this target. The experiment in a line: competition ELISA on immobilized SIRPa; competitor CD47Fc at 0.04 ug/ml, anti-human Fc detection. As for the experimental part: (§1) Method: For competitive ELISA assay, recombinant hSIRPa (Sino Biologicals, Beijing, China; reference 11612-H08H) was immobilized on plastic at 0.5 μg/ml in carbonate buffer (pH9.2).
In test [5] the target is T2, recombinant hSIRPb-His (Antibodies-online, reference ABIN3077231) (human, UniProt Q5TFQ8 30-371).
T2 construct: also called SIRPb-His (Blitz); not shown: His tag
The experiment in a line: BLI (Blitz); SIRPb-His on Ni-NTA biosensor, antibody at 20 ug/ml [B, table A]. As for the experimental part: FIG. 7. (A) Affinity analysis by Blitz of anti-SIRP antibodies on human SIRPb recombinant protein. SIRPb-His recombinant protein was immobilized onto a NINTA biosensor and the indicated antibodies were added at 20 μg/ml. […] (B) Binding analysis of anti-SIRP antibodies (human SIRPb-His coating and anti-human kappa detection).
(§2) Method: This method was performed with a Blitz (Forte Bio; USA; reference C22-2 No 61010-1). Recombinant hSIRPb-His (Antibodies-online; USA; reference ABIN3077231) was immobilized at 10 μg/ml by histidine tail into a Ni-NTA biosensor (Forte Bio; USA; reference 18-0029) for 30 seconds. Then, an anti-SIRPa antibody was associated at 20 μg/mL for 120 seconds. The dissociation of anti-SIRPa antibody was made in kinetics buffer for 120 seconds. Analysis of data was made with the Blitz pro 1.2 software, which calculated association constant (ka) and dissociation constant (kd) and determined the affinity constant KD […].

The target in test [6] is T3, recombinant hSIRPg-His (Sino Biologicals, reference 11828-H08H) (human, UniProt Q9P1W8 29-360).
T3 construct: also called human SIRPg-His; not shown: His tag
The experiment in a line: BLI (Blitz); SIRPg-His on Ni-NTA biosensor, antibody at 10 ug/ml or 20 ug/ml (Example 9) [B, table A]. How it is done:
FIG. 8. (A) Affinity analysis by Blitz of anti-SIRP antibodies on human SIRPg recombinant protein. SIRPg-His recombinant protein was immobilized onto a NINTA biosensor and the indicated antibodies were added at 10 μg/ml. […] (B) Binding analysis by ELISA assay of anti-SIRP antibodies on SIRPg (human SIRPg-His coating and anti-human kappa detection).
as §2, with “hSIRPg-His (Sino Biologicals, Beijing, China;” for “hSIRPb-His (Antibodies-online; USA;”, “11828-H08H)” for “ABIN3077231)”

For test [7], the target named is T1, recombinant hSIRPa (Sino Biologicals, …). The experiment in a line: ELISA on immobilized hSIRPa-His, anti-human IgG detection. A general note: ELISA stands for enzyme-linked immunosorbent assay.
The target in another test is T4, CD28Fc (human, UniProt P10747 19-152, limits assumed).
T4 construct: not shown: Fc; not specified
In words: ELISA: modified antibody on immobilized SIRPa-His, CD28Fc added and detected with mouse anti-human CD28. The source says:
(§3) FIG. 24. Ligand binding assay with the different modified anti-SIRPa antibodies by ELISA.

For test [8], the target named is T1, recombinant hSIRPa (Sino Biologicals, …). The experiment in a line: ELISA on immobilized SIRPa-His, peroxidase anti-human IgG, DO 450nm [panel ICOSL]. As for the experimental part: Method: For ELISA assay, recombinant hSIRPa (Sino Biologicals, Beijing, China; reference 11612-H08H) was immobilized on plastic at 0.5 μg/ml in carbonate buffer (pH9.2) and different modified anti-SIRPa antibodies were added to measure binding to SIRPa.

Another test addresses T5, PD1His (human, UniProt Q15116 25-170, limits assumed).
T5 construct: not shown: His tag
In words: ELISA: modified antibody (concentration on the axis) captured on SIRPa-His, then PD1His, detected with mouse anti-His [panel PDL1].
Text: as §3

In test [9] the target is T1, recombinant hSIRPa (Sino Biologicals, …). In words: competition ELISA on coated SIRPa-His; competitor biotinylated CD47-Fc at 6 ug/ml, streptavidin-peroxidase [panel PDL1]. How it is done: as §1
Test [10] shares this target. In words: competition ELISA on coated SIRPa-His; competitor biotinylated CD47-Fc at 6 ug/ml, streptavidin-peroxidase [panel 4-1BBL]. How it is done:
as §1

Usually Kd stands for the constant that tells how readily two partners part at equilibrium. The koff is a measure of how fast the partners let go of each other. As usually defined, the kon is a measure of how fast the partners come together. In general, EC50 refers to the concentration needed to bring the measured effect to its halfway point. The term EC50 (read off the curve) denotes the concentration that produces a half-maximal response.

B1: mouse antibody 18D5 (antibody, mouse IgG2b, kappa)
heavy: QVQLQQPGAELVRPGSSVKLSCKASGYTFTSYWVHWVKQRPIQGLEWIGNIDPSDSDTHYNQKFKDKASLTVDKSSSTAYMQLSSLTFEDSAVYYCVRGGTGTMAWFAYWGQGTLVTVSAAKTTPPSVYPLAPGCGDTTGSSVTLGCLVKGYFPESVTVTWNSGSLSSSVHTFPALLQSGLYTMSSSVTVPSSTWPSQTVTCSVAHPASSTTVDKKLEPSGPISTINPCPPCKECHKCPAPNLEGGPSVFIFPPNIKDVLMISLTPKVTCVVVDVSEDDPDVQISWFVNNVEVHTAQTQTHREDYNSTIRVVSTLPIQHQDWMSGKEFKCKVNNKDLPSPIERTISKIKGLVRAPQVYILPPPAEQLSRKDVSLTCLVVGFNPGDISVEWTSNGHTEENYKDTAPVLDSDGSYFIYSKLNMKTSKWEKTDSFSCNVRHEGLKNYYLKKTISRSPGK
light: DVVMTQTPLSLPVSLGDQASISCRSSQSLVHSYGNTYLYWYLQKPGQSPKLLIYRVSNRFSGVPDRFSGSGSGTDFTLKISRVEAEDLGVYFCFQGTHVPYTFGSGTKLEIKRADAAPTVSIFPPSSEQLTSGGASVVCFLNNFYPKDINVKWKIDGSERQNGVLNSWTDQDSKDSTYSMSSTLTLTKDEYERHNSYTCEATHKTSTSPIVKSFNRNEC
notes: mouse monoclonal anti-human SIRPa antibody; also called m18D5; m18D5 clone
In the case of B1, the Kd turned out to be 28.6 nM in [1], 0.193 nM in test [2] and 111 nM in test [3]. In addition, the results for the off-rate constant (koff) in test [1], in [2] and in test [3] were 0.0109 s⁻¹, 1.2e-05 s⁻¹ and 0.00176 s⁻¹, respectively. In addition, the on-rate constant (kon) in [1] turned out to be 380000 M⁻¹ s⁻¹; in test [2], 62300 M⁻¹ s⁻¹; in [3] it was 15800 M⁻¹ s⁻¹. The “IC50 (read off the curve)” value in test [4] is around 0.5 µg/mL.

B2: Kwar23 (antibody, V domains shown)
VH: EVQLQQSGAELVKPGASVKLSCTASGFNIKDYYIHWVQQRTEQGLEWIGRIDPEDGETKYAPKFQDKATITADTSSNTAYLHLSSLTSEDTAVYYCARWGAYWGQGTLVTVSS
VL: QIVLTQSPAIMSASPGEKVTLTCSASSSVSSSYLYWYQQKPGSSPKLWIYSTSNLASGVPARFSGSGSGTSYSLTISSMEAEDAASYFCHQWSSYPRTFGAGTKLELK
For B2, in [5], the Kd came out at 2.77 nM, the koff stood at 0.000794 s⁻¹ and the kon turned out to be 286000 M⁻¹ s⁻¹. In test [2], the dissociation constant (Kd) worked out at 0.367 nM, the koff came out at 8.95e-05 s⁻¹ and the kon is 244000 M⁻¹ s⁻¹. In addition, in test [6], the Kd was determined as 2.14 nM, the koff came out at 0.000765 s⁻¹ and the kon amounted to 357000 M⁻¹ s⁻¹. In addition, the EC50 in [7] turned out to be 0.0033 µg/mL.

B3: modified anti-SIRPa HEFLB antibody with ECD of ICOSL on the heavy chain (antibody, human IgG4 S228P, kappa)
heavy: not shown
light: DVVMTQSPLSLPVTLGQPASISCRSSQSLVHSYGNTYLYWFQQRPGQSPRLLIYRVSNRFSGVPDRFSGSGSGTDFTLKISRVEAEDVGVYYCFQGTHVPYTFGGGTKVEIKRTVAAPSVFIFPPSDEQLKSGTASVVCLLNNFYPREAKVQWKVDNALQSGNSQESVTEQDSKDSTYSLSSTLTLSKADYEKHKVYACEVTHQGLSSPVTKSFNRGEC
notes: as m25, ECD of ICOSL; also called VHprot+VL (ICOSL); HEF-ICOSL + LB
On to B3, for which the binding result in the test with CD28Fc is on record as “binds”. Also, in [8], the concentration giving a half-maximal response (EC50 (read off the curve)) was around 0.008 µg/mL.

B4: modified anti-SIRPa HEFLB antibody with ECD of PDL1 on the heavy chain (antibody, human IgG4 S228P, kappa)
heavy: not shown
light: B3 light
notes: as m25, ECD of PDL1; also called VHprot+VL (PDL1); VH-PDL1
As to B4, in the test with PD1His, the binding result is “binds”. Moreover, the “IC50 (read off the curve)” value in test [9] is around 0.3 µg/mL.

B5: modified anti-SIRPa HEFLB antibody with ECD of 4-1BBL on the heavy chain (antibody, human IgG4 S228P, kappa)
heavy: not shown
light: B3 light
notes: as m25, ECD of 4-1BBL; also called VHprot+VL (4-1BBL); VH-4-1BBL
Regarding B5, the “IC50 (read off the curve)” value in test [10] was around 0.3 µg/mL.
